These results are taken from article PMC12444091.

What is called pKa is the negative logarithm of the acid dissociation constant. Read a low pKa as a stronger acid or weaker base.

What all share (experiment): potentiometry
Holding throughout (conditions): 25 °C (± 0.2 °C); 0.1 M (KCl); none (4 mM HCl, 0.1 M KCl); peptide 0.001 M; metal-free peptide, unstructured (random-coil CD spectrum)

Data set [1] concerns the target Asp129 (UniProt position 129, …).
Data set [2] concerns the target His124 (UniProt position 124, …).
The target is the same in data set [3]. This is another data set of the same source.
The target of data set [4] is Asp129 (UniProt position 129, …). This is another data set of the same source.
Data set [5] has the same target. This is another data set of the same source.

B1: HSPB1(124-131) peptide L3, Ac-HEARQDEA-NH2 (Homo sapiens; E126A;H131A) (peptide)
chain: HEARQDEA
As for B1, the pKa in data set [1] turned out to be 3.47; in data set [2] it was 6.71.

B2: HSPB1(124-131) peptide L2, Ac-HEERQDEA-NH2 (Homo sapiens; H131A) (peptide)
chain: HEERQDEA
Take B2: the pKa in data set [3] worked out at 7.00; in data set [4] it was 3.60.

B3: HSPB1(124-131) peptide L4, Ac-HEARQDEH-NH2 (Homo sapiens; E126A) (peptide)
chain: HEARQDEH
Take B3: in data set [5], the pKa was 3.26.
